The values below come from PMC9402439.

The target in assay [1] is human CST (CTC1–STN1–TEN1) heterotrimer, recombinant, from HEK293T cells (human) (UniProt Q2NKJ3).
Assay [2] has the same target. Description: co-IP; successive anti-FLAG and anti-HA immunopurifications of 3×FLAG-CTC1, Myc-STN1 and HA-TEN1 from transfected HEK293T cells, 150 mM NaCl in the wash and elution buffers; subunits found by western blot and quantified against insect-cell standards. (Immunoblotting shows a protein as a band on a membrane.)

Where only a bound is given, the exact number is not on record here.

Chain of Polα–primase (DNA polymerase α-primase), endogenous human enzyme, four subunits (Q14181 whole entry, looked up, tested part not stated): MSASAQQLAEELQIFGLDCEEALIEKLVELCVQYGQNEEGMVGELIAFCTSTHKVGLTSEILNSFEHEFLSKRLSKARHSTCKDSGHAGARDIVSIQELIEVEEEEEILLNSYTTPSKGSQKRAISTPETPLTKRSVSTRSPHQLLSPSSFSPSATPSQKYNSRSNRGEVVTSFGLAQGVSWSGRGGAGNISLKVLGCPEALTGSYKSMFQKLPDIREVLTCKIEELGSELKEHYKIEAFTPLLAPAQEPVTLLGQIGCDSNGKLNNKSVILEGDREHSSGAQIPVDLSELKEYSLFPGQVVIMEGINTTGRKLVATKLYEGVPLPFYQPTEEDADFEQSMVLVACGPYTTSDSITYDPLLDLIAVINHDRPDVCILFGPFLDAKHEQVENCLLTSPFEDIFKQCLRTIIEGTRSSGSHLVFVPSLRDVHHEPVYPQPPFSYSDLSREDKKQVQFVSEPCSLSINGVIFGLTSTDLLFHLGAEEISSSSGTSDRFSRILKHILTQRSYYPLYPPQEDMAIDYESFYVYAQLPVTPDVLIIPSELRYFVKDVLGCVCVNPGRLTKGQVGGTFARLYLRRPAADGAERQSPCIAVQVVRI
Chain of Polα–primase (DNA polymerase α-primase), endogenous human enzyme, four subunits (P09884 whole entry, looked up, tested part not stated): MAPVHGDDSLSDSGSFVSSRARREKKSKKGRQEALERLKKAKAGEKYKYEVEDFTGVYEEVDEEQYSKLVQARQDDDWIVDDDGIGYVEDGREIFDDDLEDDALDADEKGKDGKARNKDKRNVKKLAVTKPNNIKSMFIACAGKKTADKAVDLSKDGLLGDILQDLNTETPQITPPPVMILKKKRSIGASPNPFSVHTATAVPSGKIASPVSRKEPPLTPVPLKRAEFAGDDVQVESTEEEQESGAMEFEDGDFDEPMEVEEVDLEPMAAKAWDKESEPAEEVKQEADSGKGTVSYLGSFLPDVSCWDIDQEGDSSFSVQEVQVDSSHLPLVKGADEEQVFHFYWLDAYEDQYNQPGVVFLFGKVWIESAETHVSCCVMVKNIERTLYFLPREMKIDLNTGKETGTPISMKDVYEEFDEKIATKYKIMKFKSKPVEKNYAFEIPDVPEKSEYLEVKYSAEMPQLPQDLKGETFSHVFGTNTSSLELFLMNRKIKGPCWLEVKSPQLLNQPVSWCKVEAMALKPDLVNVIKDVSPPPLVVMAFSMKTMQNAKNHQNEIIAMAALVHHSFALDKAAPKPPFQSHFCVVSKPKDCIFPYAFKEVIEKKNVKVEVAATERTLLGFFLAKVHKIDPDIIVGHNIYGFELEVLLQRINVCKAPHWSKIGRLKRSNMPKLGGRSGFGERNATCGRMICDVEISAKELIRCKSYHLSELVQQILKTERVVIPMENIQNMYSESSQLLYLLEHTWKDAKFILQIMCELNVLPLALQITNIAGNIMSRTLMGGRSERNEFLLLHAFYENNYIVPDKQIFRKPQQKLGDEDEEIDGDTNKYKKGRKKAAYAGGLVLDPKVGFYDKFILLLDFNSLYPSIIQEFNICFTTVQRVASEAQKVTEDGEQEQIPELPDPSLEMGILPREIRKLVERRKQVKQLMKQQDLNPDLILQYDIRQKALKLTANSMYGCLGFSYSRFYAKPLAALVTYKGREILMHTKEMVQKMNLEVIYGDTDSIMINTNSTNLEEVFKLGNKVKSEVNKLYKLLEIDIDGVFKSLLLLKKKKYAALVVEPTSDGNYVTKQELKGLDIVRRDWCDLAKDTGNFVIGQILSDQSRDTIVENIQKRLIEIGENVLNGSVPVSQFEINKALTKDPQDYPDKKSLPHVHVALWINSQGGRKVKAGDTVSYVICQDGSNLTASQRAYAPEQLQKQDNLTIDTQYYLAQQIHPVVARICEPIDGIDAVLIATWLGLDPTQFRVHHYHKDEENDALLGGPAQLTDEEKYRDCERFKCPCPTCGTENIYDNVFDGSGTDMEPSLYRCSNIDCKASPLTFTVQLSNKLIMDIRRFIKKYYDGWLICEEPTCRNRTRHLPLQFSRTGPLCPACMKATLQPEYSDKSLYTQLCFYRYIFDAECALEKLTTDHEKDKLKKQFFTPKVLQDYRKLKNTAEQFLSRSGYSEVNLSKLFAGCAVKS
Chain of human CST (CTC1–STN1–TEN1) heterotrimer, recombinant, from HEK293T cells (human) (Q2NKJ3 whole entry, chain 1 of 3): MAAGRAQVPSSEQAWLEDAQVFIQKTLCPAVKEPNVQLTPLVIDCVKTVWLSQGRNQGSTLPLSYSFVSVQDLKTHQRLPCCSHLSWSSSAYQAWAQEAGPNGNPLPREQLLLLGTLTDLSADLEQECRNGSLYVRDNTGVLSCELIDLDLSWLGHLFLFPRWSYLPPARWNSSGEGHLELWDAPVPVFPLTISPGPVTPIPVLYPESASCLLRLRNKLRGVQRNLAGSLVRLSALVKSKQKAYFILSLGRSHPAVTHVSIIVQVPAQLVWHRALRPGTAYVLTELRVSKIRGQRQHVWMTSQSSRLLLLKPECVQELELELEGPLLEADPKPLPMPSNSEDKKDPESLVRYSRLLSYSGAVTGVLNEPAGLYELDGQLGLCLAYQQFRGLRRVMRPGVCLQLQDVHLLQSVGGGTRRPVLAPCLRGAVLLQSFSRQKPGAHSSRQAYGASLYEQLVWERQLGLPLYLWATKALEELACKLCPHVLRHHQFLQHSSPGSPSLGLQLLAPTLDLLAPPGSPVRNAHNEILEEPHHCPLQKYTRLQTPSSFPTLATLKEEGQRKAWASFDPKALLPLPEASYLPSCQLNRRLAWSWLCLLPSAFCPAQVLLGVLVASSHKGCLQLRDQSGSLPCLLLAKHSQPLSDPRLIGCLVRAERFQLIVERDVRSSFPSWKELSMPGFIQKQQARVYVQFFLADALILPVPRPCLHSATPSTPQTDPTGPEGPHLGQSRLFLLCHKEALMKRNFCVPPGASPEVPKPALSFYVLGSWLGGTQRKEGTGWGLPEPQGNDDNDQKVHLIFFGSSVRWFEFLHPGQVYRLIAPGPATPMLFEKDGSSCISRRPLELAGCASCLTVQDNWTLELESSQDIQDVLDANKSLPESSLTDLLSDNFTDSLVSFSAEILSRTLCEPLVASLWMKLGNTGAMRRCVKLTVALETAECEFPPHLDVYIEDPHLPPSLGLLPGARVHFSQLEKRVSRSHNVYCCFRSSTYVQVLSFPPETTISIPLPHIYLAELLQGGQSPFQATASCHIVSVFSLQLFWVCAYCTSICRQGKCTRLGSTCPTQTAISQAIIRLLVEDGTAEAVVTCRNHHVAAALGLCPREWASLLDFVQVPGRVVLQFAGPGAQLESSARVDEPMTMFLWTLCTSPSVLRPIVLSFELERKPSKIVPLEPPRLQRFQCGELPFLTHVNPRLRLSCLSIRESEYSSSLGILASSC
Chain of human CST (CTC1–STN1–TEN1) heterotrimer, recombinant, from HEK293T cells (human) (Q9H668 whole entry, chain 2 of 3, further chain): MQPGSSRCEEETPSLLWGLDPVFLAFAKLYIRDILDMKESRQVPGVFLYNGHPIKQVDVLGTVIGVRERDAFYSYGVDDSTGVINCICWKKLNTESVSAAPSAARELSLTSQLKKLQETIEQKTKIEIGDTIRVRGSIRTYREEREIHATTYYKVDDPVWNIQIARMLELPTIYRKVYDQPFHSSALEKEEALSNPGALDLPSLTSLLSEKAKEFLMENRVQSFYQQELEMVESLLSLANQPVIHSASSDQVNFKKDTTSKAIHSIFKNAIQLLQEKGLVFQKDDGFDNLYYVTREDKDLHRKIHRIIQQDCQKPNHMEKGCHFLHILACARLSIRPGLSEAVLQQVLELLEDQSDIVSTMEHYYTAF
Chain of human CST (CTC1–STN1–TEN1) heterotrimer, recombinant, from HEK293T cells (human) (Q86WV5 whole entry, chain 3 of 3, further chain): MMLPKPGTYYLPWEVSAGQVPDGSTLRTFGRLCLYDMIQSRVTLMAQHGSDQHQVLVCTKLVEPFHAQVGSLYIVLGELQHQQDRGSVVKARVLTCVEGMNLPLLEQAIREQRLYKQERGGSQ

“Polα–primase (DNA polymerase α-primase), endogenous human enzyme, four subunits (from UniProt P09884 1-1462; Q14181 1-598) (complex)”: in assay [1], the C-strand synthesis activity of CST–Polα–primase from HEK cells relative to recombinant human Polα–primase from insect cells, high concentrations of enzyme and template DNA (5 µM, 15×TEL) was greater than 10 fold; the C-strand synthesis activity of CST–Polα–primase from HEK cells relative to recombinant human Polα–primase from insect cells, standard reaction conditions (100 nM template) is greater than 10000 fold. The stoichiometry in the purified preparation (POLA per CST) in assay [2] amounted to 0.21 POLA per CST.
